This note sets out measurements from paper PMC5441855.

For this data set, the system named is CC(C)=CCC/C(C)=C/CC/C(C)=C/CC/C(C)=C/COP(=O)(O)OP(=O)(O)O. The data set can be described thus: purified protein. The note with it: 50 mM HEPES pH 7.0, 100 mM KCl, 0.1 mM MgCl2, 10% glycerol, 30 °C, 1-25 µM GGPP, 30 s, product (-)-kolavenyl diphosphate.

As a reminder, the Km is the substrate concentration at which the rate is half of its maximum. As usually defined, the kcat is the number of substrate molecules converted per active site and unit of time at saturation.

Consider SdKPS (Tr-SdKPS) (Salvia divinorum), for which the Michaelis-Menten constant (Km) stood at 1.9 ± 0.66 µM and the kcat amounted to 0.88 ± 0.11 s⁻¹.
